Assay results as given in publication PMC1911201 (Molecular Systems Biology, 2007).

Legend:
Test in all cases: peptide or protein array
[1] = biological target: T1, Yjl084c (S. cerevisiae, UniProt P47029 1-1046)
T1 sequence (looked up): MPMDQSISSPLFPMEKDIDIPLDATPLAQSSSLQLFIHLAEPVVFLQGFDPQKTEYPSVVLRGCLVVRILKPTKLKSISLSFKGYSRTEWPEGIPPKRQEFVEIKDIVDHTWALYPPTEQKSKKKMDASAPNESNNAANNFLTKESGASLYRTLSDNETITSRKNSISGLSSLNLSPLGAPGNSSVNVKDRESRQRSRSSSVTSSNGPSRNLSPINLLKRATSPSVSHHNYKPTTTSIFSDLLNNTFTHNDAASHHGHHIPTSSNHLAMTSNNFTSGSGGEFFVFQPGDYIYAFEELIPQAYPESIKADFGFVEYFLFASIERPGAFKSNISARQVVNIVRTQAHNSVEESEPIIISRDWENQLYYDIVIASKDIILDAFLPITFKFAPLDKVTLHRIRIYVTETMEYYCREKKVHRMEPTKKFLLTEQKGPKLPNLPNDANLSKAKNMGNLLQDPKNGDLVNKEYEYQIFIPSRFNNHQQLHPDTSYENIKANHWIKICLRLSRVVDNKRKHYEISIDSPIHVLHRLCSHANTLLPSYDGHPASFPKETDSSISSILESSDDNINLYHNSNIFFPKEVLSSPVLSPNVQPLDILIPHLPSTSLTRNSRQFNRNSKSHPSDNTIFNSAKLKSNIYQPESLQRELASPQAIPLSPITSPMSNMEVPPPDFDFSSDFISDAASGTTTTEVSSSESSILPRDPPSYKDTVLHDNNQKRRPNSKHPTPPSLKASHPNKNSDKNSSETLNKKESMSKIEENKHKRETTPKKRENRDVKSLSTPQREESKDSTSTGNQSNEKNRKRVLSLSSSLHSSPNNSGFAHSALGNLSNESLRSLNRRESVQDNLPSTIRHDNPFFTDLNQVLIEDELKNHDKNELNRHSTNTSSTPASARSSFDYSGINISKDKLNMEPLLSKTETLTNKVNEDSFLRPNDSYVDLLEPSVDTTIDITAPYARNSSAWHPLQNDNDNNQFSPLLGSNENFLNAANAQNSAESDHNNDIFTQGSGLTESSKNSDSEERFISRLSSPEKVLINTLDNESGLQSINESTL

[2] = biological target: T2, Dis3 (S. cerevisiae, UniProt Q08162 1-1001)
T2 sequence (looked up): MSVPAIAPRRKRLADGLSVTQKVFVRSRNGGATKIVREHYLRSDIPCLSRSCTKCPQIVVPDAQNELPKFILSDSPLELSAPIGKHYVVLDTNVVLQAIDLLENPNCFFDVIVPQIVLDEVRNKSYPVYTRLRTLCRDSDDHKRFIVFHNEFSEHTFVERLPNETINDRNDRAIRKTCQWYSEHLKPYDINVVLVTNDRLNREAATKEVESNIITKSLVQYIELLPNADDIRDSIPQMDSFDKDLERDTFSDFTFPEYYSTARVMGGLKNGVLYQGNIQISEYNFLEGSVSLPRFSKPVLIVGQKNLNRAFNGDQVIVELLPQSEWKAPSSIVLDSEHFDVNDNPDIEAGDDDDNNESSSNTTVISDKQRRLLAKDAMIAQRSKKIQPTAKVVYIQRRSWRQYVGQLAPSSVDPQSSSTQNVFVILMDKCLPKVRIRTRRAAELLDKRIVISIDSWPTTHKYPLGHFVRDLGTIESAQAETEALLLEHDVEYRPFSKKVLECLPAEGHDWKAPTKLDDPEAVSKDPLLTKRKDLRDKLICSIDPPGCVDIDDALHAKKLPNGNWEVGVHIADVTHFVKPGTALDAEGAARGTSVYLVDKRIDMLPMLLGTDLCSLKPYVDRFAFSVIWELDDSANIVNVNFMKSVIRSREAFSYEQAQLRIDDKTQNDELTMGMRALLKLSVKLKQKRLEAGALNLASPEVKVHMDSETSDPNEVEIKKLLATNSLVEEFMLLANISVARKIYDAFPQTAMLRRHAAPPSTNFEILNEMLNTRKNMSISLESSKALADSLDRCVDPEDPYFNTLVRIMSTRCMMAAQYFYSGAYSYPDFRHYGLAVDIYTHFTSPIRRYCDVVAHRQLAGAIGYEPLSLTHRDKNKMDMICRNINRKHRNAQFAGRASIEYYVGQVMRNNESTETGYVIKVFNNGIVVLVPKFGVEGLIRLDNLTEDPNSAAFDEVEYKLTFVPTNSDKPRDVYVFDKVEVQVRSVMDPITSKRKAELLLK

[3] = biological target: T3, Ykr021w (S. cerevisiae, UniProt P36117 1-915)
T3 sequence (looked up): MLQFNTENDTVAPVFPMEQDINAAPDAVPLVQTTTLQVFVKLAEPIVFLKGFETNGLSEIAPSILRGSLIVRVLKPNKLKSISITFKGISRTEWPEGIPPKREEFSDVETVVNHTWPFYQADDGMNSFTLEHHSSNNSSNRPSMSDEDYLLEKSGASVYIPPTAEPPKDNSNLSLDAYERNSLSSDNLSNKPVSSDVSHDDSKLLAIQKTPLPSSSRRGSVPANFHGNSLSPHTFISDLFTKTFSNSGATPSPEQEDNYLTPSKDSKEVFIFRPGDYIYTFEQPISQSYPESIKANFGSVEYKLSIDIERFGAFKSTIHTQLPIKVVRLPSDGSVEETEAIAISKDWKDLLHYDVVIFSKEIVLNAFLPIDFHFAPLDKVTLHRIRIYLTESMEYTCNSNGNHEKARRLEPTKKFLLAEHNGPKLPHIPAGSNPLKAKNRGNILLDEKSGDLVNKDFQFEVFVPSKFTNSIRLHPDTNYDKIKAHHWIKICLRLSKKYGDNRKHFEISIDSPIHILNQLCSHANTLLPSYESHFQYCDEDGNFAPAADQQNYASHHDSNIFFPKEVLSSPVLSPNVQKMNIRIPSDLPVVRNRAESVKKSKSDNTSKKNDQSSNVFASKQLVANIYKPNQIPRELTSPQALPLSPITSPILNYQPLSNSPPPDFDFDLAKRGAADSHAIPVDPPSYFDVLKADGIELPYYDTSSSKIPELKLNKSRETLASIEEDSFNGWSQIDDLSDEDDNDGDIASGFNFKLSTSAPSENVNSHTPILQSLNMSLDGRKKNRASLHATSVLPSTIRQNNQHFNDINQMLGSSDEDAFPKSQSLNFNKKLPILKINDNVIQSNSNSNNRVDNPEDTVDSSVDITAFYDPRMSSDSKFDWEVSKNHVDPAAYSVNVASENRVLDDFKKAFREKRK

- binding result [1]: binds
- binding result [2]: binds
- binding result [3]: binds
B1: Rsp5 (enzyme)
chain: not shown
modifications: labeled with AlexaFluor 647 (Microscale Protein Labeling kit)
